Results reported in patent EP4786492A1 (Simcere Zaiming Pharmaceutical Co., Ltd., dated 2026).

Experiments:
human DLL3-his protein = target: T1, human DLL3-his protein (human, UniProt Q9NYJ7 27-492); experiment: ELISA
T1 construct: also called human DLL3 protein; DLL3 antigen protein; not shown: His tag
T1 sequence: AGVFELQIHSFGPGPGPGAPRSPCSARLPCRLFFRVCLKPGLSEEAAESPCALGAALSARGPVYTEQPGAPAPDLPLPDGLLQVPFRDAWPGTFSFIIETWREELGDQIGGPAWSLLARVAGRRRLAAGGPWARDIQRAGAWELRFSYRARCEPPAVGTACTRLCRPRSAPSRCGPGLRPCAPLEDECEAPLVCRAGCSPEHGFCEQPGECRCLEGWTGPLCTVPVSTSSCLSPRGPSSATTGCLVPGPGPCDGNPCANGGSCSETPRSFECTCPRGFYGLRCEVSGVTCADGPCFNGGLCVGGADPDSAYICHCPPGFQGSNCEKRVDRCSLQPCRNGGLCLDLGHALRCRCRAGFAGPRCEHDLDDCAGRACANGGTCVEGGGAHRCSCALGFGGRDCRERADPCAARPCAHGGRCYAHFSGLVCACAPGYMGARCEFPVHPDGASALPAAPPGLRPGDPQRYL

[1] = target: T2, human DLL3 endogenously expressed on SHP77 and NCI-H82 cells (human, UniProt Q9NYJ7 27-618); experiment: FACS, SHP77 and NCI-H82 cells
T2 construct: whole, on cells; cells endogenously expressing DLL3; also called SHP77 cells; SHP-77 cells
T2 sequence (looked up): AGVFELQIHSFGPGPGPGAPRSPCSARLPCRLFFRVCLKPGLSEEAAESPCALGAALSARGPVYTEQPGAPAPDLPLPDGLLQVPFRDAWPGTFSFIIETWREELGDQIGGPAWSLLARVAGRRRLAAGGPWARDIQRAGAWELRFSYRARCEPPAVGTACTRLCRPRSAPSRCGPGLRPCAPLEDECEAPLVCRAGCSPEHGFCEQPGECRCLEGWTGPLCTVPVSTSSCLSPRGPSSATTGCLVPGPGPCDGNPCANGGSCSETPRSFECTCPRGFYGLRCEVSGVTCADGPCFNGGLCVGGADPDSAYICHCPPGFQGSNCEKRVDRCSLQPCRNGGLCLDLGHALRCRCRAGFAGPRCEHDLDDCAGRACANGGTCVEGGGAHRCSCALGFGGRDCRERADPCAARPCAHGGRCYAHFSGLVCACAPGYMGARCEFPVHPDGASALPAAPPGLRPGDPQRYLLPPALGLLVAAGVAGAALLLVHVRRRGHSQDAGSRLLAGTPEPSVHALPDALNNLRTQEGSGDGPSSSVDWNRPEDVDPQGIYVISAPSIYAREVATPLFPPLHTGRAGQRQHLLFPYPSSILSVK

[2] = target: T3, mouse DLL3 on CHO K1-mDLL3 cells (mouse, UniProt O88516 33-490); experiment: FACS, CHO K1-mDLL3 cells
T3 construct: also called mouse DLL3 recombinant cell line
T3 sequence: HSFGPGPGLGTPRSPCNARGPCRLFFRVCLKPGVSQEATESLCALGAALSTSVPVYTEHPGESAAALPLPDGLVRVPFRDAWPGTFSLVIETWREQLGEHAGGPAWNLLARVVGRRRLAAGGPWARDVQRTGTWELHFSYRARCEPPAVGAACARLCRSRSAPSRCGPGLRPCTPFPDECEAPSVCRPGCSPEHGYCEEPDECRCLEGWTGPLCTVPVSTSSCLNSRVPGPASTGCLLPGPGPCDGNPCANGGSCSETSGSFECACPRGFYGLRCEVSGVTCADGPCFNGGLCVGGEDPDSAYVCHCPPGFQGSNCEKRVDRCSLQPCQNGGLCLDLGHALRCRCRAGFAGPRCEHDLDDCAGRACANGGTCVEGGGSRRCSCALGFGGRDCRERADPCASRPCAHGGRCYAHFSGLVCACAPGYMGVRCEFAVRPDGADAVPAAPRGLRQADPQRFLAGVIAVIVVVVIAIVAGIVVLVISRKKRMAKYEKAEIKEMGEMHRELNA

[3] = target: T4, human DLL3 on CHO-K1 hDLL3 cells (human, UniProt Q9NYJ7 27-492); experiment: FACS, CHO-K1 hDLL3 cells
T4 construct: also called human DLL3 recombinant cell line
T4 sequence: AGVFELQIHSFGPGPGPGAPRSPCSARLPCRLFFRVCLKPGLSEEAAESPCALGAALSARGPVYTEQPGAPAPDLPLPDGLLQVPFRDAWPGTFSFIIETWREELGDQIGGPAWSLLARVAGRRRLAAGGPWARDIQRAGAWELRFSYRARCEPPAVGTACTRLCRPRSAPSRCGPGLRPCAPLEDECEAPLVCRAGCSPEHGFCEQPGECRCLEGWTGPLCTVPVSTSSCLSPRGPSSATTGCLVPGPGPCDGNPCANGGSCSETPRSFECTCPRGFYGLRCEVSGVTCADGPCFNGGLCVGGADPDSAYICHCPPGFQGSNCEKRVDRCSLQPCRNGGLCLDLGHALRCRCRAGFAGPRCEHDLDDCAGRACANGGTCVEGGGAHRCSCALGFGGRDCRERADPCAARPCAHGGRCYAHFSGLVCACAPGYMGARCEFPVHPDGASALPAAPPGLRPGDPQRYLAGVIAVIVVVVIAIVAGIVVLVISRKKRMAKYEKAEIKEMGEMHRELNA

[4] = target: T5, monkey DLL3 on CHO K1-cyno DLL3 cells (cynomolgus monkey); experiment: FACS, CHO K1-cyno DLL3 cells
T5 construct: also called monkey DLL3 recombinant cell line
T5 chain: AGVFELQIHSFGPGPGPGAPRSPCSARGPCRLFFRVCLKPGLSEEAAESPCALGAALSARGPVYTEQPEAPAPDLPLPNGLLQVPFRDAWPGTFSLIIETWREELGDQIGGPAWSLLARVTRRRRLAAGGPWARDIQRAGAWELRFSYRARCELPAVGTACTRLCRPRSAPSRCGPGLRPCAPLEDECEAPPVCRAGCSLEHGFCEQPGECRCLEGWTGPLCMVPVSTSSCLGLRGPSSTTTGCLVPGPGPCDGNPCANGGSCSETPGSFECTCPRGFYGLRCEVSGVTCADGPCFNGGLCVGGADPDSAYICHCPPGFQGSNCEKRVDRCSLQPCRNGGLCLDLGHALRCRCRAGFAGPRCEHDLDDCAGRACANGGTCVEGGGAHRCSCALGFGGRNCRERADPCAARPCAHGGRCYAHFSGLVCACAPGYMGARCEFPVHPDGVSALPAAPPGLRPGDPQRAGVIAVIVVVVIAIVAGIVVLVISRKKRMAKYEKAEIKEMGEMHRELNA

Measured: binding result

B1: Hab009VL3aVH1-hFc (Fc fusion)
scFv (part 1 of 2): DIVMTQSPLSLPVTPGEPASISCRASQTISDYLHWYLQKSHQSPQLLIKYASQSISGVPDRFSGSGSGTDFTLKISRVEAEDVGVYYCQQGHSFPLTFGQGTKLEIK
scFv (part 2 of 2): EVQLVQSGAEVKKPGASVKVSCKASGYTFTSYWMHWVRQAPGQRLEWMGTIYPGNSDTRYNQKFKDRVTITADTSASTAYMELSSLRSEDTAVYYCTRSYDYGDLDYWGQGTTVTVSS
notes: humanized mab009, VL-linker-VH-human IgG1 Fc; not shown: linker; human IgG1 Fc fragment
binds: human DLL3-his protein | [1] | [2] | [3] | [4]

B2: Hab014VL1VH2-hFc (Fc fusion)
scFv (part 1 of 2): DIQMTQSPSSLSASVGDRVTITCKASEDIYNRLAWYQQKPGKVPKLLISGATSLETGVPSRFSGSGSGTDFTLTISSLQPEDVATYYCQQYWSLPWTFGGGTKVEIK
scFv (part 2 of 2): EVQLVQSGAEVKKPGASVKVSCKASGYTFTDYYMNWVRQAPGQRLEWMGDINPNHGDTGYNQKFTGRVTLTVDKSASTAYMELSSLRSEDTAVYYCARNFFYYGTTYGWYFDVWGQGTTVTVSS
notes: humanized mab014, VL-linker-VH-human IgG1 Fc; not shown: linker; human IgG1 Fc fragment
binds: human DLL3-his protein | [1] | [2] | [3] | [4]

B3: Hab014VL3VH1-hFc (Fc fusion)
scFv (part 1 of 2): DIVMTQSPDSLAVSLGERATINCKASEDIYNRLAWYQQKPGQTPKLLISGATSLETGVPDRFSGSGSGKDFTLTISSLQAEDVAVYYCQQYWSLPWTFGGGTKVEIK
scFv (part 2 of 2): EVQLVQSGAEVKKPGASVKVSCKASGYTFTDYYMNWVRQAPGQRLEWMGDINPNHGDTGYNQKFTGRVTITVDKSASTAYMELSSLRSEDTAVYYCARNFFYYGTTYGWYFDVWGQGTTVTVSS
notes: as for B2
binds: human DLL3-his protein | [1] | [2] | [3] | [4]

B4: Hab014VL2VH1-hFc (Fc fusion)
scFv (part 1 of 2): DIQMTQSPSSLSASVGDRVTITCKASEDIYNRLAWYQQKPGKVPKLLISGATSLETGVPSRFSGSGSGKDFTLTISSLQPEDVATYYCQQYWSLPWTFGGGTKVEIK
scFv (part 2 of 2): EVQLVQSGAEVKKPGASVKVSCKASGYTFTDYYMNWVRQAPGQRLEWMGDINPNHGDTGYNQKFTGRVTITVDKSASTAYMELSSLRSEDTAVYYCARNFFYYGTTYGWYFDVWGQGTTVTVSS
notes: as for B2
binds: human DLL3-his protein | [1] | [2] | [3] | [4]

B5: Hab015VL4VH1a-hFc (Fc fusion)
scFv (part 1 of 2): NIVLTQSPATLSLSPGERATLSCKASENVGTYVSWFQQKPGQSPRLLIYGASNRYTGIPARFSGSGSGTDFTLTISSLEPEDFAVYYCGQFYSFPSTFGGGTKVEIK
scFv (part 2 of 2): EVQLVESGGGLVKPGGSLRLSCAASGITFSNFWMNWVRQAPGKGLEWVGQIRLKSDDYATHYAESVKGRFTISREDSKNTVYLQMNSLKTEDTAVYYCTTGYYFDYWGQGTTVTVSS
notes: humanized mab015, VL-linker-VH-human IgG1 Fc; also called Hab015L4H1a; not shown: linker; human IgG1 Fc fragment
binds: human DLL3-his protein | [1] | [2] | [3] | [4]

B6: Hab015VL4VH6a-hFc (Fc fusion)
scFv (part 1 of 2): NIVLTQSPATLSLSPGERATLSCKASENVGTYVSWFQQKPGQSPRLLIYGASNRYTGIPARFSGSGSGTDFTLTISSLEPEDFAVYYCGQFYSFPSTFGGGTKVEIK
scFv (part 2 of 2): EVQLVESGGGLVKPGGSLRLSCAASGITFSNFWMNWVRQAPEKGLEWVGQIRLKSDDYATHYAESVKGRFTISREDSKNTVYLQMNSLKTEDTAVYYCTTGYYFDYWGQGTTVTVSS
notes: humanized mab015, VL-linker-VH-human IgG1 Fc; also called Hab015L4H6a; not shown: linker; human IgG1 Fc fragment
binds: human DLL3-his protein | [1] | [2] | [3] | [4]

B7: Hab015VL4VH1b-hFc (Fc fusion)
scFv (part 1 of 2): NIVLTQSPATLSLSPGERATLSCKASENVGTYVSWFQQKPGQSPRLLIYGASNRYTGIPARFSGSGSGTDFTLTISSLEPEDFAVYYCGQFYSFPSTFGGGTKVEIK
scFv (part 2 of 2): EVQLVESGGGLVKPGGSLRLSCAASGITFSNFWMNWVRQAPGKGLEWVGQIRLKSEDYATHYAESVKGRFTISREDSKNTVYLQMNSLKTEDTAVYYCTTGYYFDYWGQGTTVTVSS
notes: humanized mab015, VL-linker-VH-human IgG1 Fc; also called Hab015L4H1b; not shown: linker; human IgG1 Fc fragment
binds: human DLL3-his protein | [1] | [2] | [3] | [4]

B8: Hab015VL4VH5a-hFc (Fc fusion)
scFv (part 1 of 2): NIVLTQSPATLSLSPGERATLSCKASENVGTYVSWFQQKPGQSPRLLIYGASNRYTGIPARFSGSGSGTDFTLTISSLEPEDFAVYYCGQFYSFPSTFGGGTKVEIK
scFv (part 2 of 2): EVQLVESGGGLVKPGGSLRLSCVASGITFSNFWMNWVRQAPGKGLEWVGQIRLKSDDYATHYAESVKGRFTISREDSKNTVYLQMNSLKTEDTAVYYCTTGYYFDYWGQGTTVTVSS
notes: humanized mab015, VL-linker-VH-human IgG1 Fc; also called Hab015L4H5a; not shown: linker; human IgG1 Fc fragment
binds: human DLL3-his protein | [1] | [2] | [3] | [4]
